Assay: soluble on expression in E. coli; label from the status in PepcDB or PDB records

Soluble on expression in E. coli, not soluble:
GPGSMSRYSTGIENIPSLFDLASALTGFIADFTQVVFGNTQTSFTAAALEETDRGNYDPVARSWEGTGGLNYRVPLYPIPSERHTRERTRNIKILMDNCRRICVEDELPSTKEELQFWTAYRFMKYQMYLTPTCVIMPPLYVMWRMFHDRIPRPFRGRTIPVTLSLALAEQWADATYPGHQFLSTALRAKTPMGDAARAEWLRLQPIDIPYYIYAAYQFQHFFGNVPKEILFGGDIAGYCS
MAHHHHHHMKKKNNNKLHYLDSKGKLYTSGLRSDTKEKYGEIPSSNKNHNLIEKYNELQSLLSKEEEKYDFVKNELGDLQKQKDLLKWHLCNNIKKLSMKRSDYKFKTETKSKLESKLKSLKDMNKIHKFEHDTLEELVHKMEQELETKMYIKNDIENIFNECINKKDEYLKDITQERISVFKERKKRQNQLQKLLLIMKQENNKNYNINYLKKYESNLMNEINSYKNYKDFETKIAMDLIDDHSLNDLYVT
MKHICLYFQIHQPFRLKRYRFFDIGNDHYYYDDFRNEEIMRRITQKCYLPANLLLKEIIAEHPEFRVAFSISGTALEQLESYSPEALDTFRDLAETGCVEFLAETYAHSLSSLYDPEEFYNQTMIHSRRMEELFGVKPRVLRNTELIFSDNIATQVAEMGFQGMLTEGAKHILGWKSPNYLYKAGSAPELSLLLRNPRLSDAISAMFTRYDWNEYPLTADKMIRWIEETPEEEQIFNLFMNYEVLGSLHPQESGIFDFFRALPSLAKKSEGVKFATPSELIESSSPVAKFSSIYPISWVGEEKDTGTWLGNVLQQGACDKLEQWGERVRMIDDQRMLQDWLYLQSADHFYYMKTRGGDAGNFSPYETPYDAFNNYMNVLSDFLLRVEARYPSTIENEELKALLTTIRNQDKQIKKLEETIKRQKTKTT

From the DeepSol protein solubility set
